Reference: patent publication US20220280636A1 (Merck Sharp & Dohme, published 2022)

How the values were obtained:
gI-2t 262 = biological target: T1, gI-2t 262 (HSV-2, UniProt P06764 21-262); experiment: SEC-MALS of the gE-2t 417 / gI-2t 262 heterodimer complex
T1 construct: Partner of gE-2t 417 in the SEC-MALS analysis of complex formation; also called soluble gI-2; not shown: glycine linker and thrombin-cleavable 6-Histidine tag

human IgG Fc = biological target: T2, human IgG Fc (human); experiment: SPR; IgG amine coupled to CM5 chip, construct flowed at 750 ug/ml; end-point RU of association phase
T2 construct: domain: Fc; Immobilised partner in SPR; also called human IgG Fc domain

human whole molecule IgG = biological target: T3, human whole molecule IgG (human); experiment: as above
T3 construct: Immobilised partner in SPR; also called Human IgG; Human IgG Whole Molecule

[1] = biological target: T4, guinea pig whole molecule IgG (guinea pig); experiment: as above
T4 construct: Immobilised partner in SPR; also called Guinea Pig IgG

mouse whole molecule IgG = biological target: T5, mouse whole molecule IgG (mouse); experiment: as above
T5 construct: Immobilised partner in SPR; also called Mouse IgG

[2] = biological target: T6, rabbit whole molecule IgG (rabbit); experiment: as above
T6 construct: Immobilised partner in SPR; also called Rabbit IgG; Rabbit IgG Whole Molecule

B1: gE-2t 417 (other)
chain: AAPRTSWKRVTSGEDVVLLPAPAGPEERTRAHKLLWAAEPLDACGPLRPSWVALWPPRRVLETVVDAACMRAPEPLAIAYSPPFPAGDEGLYSELAWRDRVAVVNESLVIYGALETDSGLYTLSVVGLSDEARQVASVVLVVEPAPVPTPTPDDYDEEDDAGVSERTPVSVPPPTPPRRPPVAPPTHPRVIPEVSHVRGVTVHMETPEAILFAPGETFGTNVSIHAIAHDDGPYAMDVVWMRFDVPSSCAEMRIYEACLYHPQLPECLSPADAPCAVSSWAYRLAVRSYAGCSRTTPPPRCFAEARMEPVPGLAWLASTVNLEFQHASPQHAGLYLCVVYVDDHIHAWGHMTISTAAQYRNAVVEQHLPQRQPEPVEPTRPHVRAPPPAPSARGPLR
notes: Monomer, mammalian expression; also called gE-2t 417 WT; gE-2t 417 wild type; not shown: glycine linker and thrombin-cleavable 6-Histidine tag
- binding result (gI-2t 262): binds
- RU Post Association (human IgG Fc): 5 RU
- RU Post Association (human whole molecule IgG): 4 RU
- RU Post Association [1]: 5 RU
- RU Post Association (mouse whole molecule IgG): 10 RU
- RU Post Association [2]: 11 RU
